As usually defined, the Kd is the equilibrium constant for the complex coming apart.

In series [1] the target is T1, dPPR10-C2 (synthetic construct (designed consensus …, Q96C;Q376C)).
T1 chain: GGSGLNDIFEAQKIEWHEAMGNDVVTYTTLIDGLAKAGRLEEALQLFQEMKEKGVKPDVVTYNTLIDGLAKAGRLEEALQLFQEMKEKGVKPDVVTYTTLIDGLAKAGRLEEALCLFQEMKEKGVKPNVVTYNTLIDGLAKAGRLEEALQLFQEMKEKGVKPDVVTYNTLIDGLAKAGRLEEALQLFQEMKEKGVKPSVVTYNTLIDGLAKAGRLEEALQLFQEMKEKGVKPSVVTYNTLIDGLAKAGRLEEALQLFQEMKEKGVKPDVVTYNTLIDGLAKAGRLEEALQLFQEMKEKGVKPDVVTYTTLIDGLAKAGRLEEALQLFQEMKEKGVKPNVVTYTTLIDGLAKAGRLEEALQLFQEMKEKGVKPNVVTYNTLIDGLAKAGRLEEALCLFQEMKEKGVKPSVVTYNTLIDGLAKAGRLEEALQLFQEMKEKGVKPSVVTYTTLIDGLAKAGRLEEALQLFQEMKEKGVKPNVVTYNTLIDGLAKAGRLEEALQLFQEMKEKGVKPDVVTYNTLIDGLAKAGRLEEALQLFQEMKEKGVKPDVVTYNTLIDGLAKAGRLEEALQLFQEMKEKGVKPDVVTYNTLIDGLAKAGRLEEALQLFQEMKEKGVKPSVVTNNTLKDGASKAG
The series is described as follows: ensemble FRET; SPR: 30 mM Tris pH 7.6, 40 mM KCl, 5 mM MgCl2, 0.5 mM DTT, 0.25 mM EDTA, 0.01% P20, 20 C; ensemble FRET and MST: 100 mM Tris-HCl pH 8.0, 100 mM KCl; smFRET buffer not in material. To be noted: protein: recombinant; tags: N-terminal Avi-tag, biotinylated; Cy3/AF647 maleimide on Cys for FRET.

For series [2], the target named is T2, dPPR10 (synthetic construct (designed consensus …)).
T2 chain: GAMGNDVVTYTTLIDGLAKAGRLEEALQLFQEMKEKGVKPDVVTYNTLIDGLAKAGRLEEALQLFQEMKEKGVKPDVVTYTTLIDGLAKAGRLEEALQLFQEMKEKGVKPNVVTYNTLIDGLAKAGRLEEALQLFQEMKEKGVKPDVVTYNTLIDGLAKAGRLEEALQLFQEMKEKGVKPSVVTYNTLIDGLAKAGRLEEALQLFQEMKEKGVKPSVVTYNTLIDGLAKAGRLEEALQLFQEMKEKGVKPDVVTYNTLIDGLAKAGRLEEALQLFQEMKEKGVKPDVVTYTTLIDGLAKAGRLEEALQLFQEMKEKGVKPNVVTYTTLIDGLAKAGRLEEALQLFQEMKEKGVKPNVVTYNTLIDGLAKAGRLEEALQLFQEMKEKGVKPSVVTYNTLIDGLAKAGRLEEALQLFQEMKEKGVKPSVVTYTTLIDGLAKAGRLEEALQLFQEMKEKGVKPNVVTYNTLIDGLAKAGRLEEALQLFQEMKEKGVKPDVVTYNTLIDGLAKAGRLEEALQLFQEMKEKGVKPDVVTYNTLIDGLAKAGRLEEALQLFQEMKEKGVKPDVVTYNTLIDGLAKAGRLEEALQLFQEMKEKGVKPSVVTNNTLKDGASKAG
The series is described as follows: MST; Fig S4D legend value, conflicts with 4 nM in text; legend says labelled dPPR10; SPR: 30 mM Tris pH 7.6, 40 mM KCl, 5 mM MgCl2, 0.5 mM DTT, 0.25 mM EDTA, 0.01% P20, 20 C; ensemble FRET and MST: 100 mM Tris-HCl pH 8.0, 100 mM KCl; smFRET buffer not in material. To be noted: protein: recombinant; tags: Trx-His6-TEV (pETM20) cleaved; GAM remnant; label: 5' 6-FAM (FITC in Results).

Series [3] has as its target T2, dPPR10. The series is described as follows: MST; Results value; Fig S4D legend gives 9.7 nM; SPR: 30 mM Tris pH 7.6, 40 mM KCl, 5 mM MgCl2, 0.5 mM DTT, 0.25 mM EDTA, 0.01% P20, 20 C; ensemble FRET and MST: 100 mM Tris-HCl pH 8.0, 100 mM KCl; smFRET buffer not in material. The note with it: protein: recombinant; tags: Trx-His6-TEV (pETM20) cleaved; GAM remnant; label: 5' 6-FAM (FITC in Results).

The target in series [4] is T1, dPPR10-C2. The series is described as follows: smFRET; 1 uM RNA; mean binding time 41.3 s vs 10.6 s cognate; SPR: 30 mM Tris pH 7.6, 40 mM KCl, 5 mM MgCl2, 0.5 mM DTT, 0.25 mM EDTA, 0.01% P20, 20 C; ensemble FRET and MST: 100 mM Tris-HCl pH 8.0, 100 mM KCl; smFRET buffer not in material. The note with it: protein: recombinant; tags: N-terminal Avi-tag, biotinylated; Cy3/AF647 maleimide on Cys for FRET; 5' extension, predicted secondary structure.

For series [5], the target named is T1, dPPR10-C2. Description: smFRET; 1 uM RNA; mean binding time 30.0 s; SPR: 30 mM Tris pH 7.6, 40 mM KCl, 5 mM MgCl2, 0.5 mM DTT, 0.25 mM EDTA, 0.01% P20, 20 C; ensemble FRET and MST: 100 mM Tris-HCl pH 8.0, 100 mM KCl; smFRET buffer not in material. To be noted: protein: recombinant; tags: N-terminal Avi-tag, biotinylated; Cy3/AF647 maleimide on Cys for FRET; no predicted secondary structure.

In series [6] the target is T1, dPPR10-C2. Description: smFRET; 1 uM RNA; rare transitions; SPR: 30 mM Tris pH 7.6, 40 mM KCl, 5 mM MgCl2, 0.5 mM DTT, 0.25 mM EDTA, 0.01% P20, 20 C; ensemble FRET and MST: 100 mM Tris-HCl pH 8.0, 100 mM KCl; smFRET buffer not in material. To be noted: protein: recombinant; tags: N-terminal Avi-tag, biotinylated; Cy3/AF647 maleimide on Cys for FRET.
Series [7] has as its target T1, dPPR10-C2. The series is described as follows: smFRET; 1 uM RNA; SPR: 30 mM Tris pH 7.6, 40 mM KCl, 5 mM MgCl2, 0.5 mM DTT, 0.25 mM EDTA, 0.01% P20, 20 C; ensemble FRET and MST: 100 mM Tris-HCl pH 8.0, 100 mM KCl; smFRET buffer not in material. To be noted: protein: recombinant; tags: N-terminal Avi-tag, biotinylated; Cy3/AF647 maleimide on Cys for FRET.
The target of series [8] is T2, dPPR10. Description: MST; SPR: 30 mM Tris pH 7.6, 40 mM KCl, 5 mM MgCl2, 0.5 mM DTT, 0.25 mM EDTA, 0.01% P20, 20 C; ensemble FRET and MST: 100 mM Tris-HCl pH 8.0, 100 mM KCl; smFRET buffer not in material. To be noted: protein: recombinant; tags: Trx-His6-TEV (pETM20) cleaved; GAM remnant; label: 5' 6-FAM.
For series [9], the target named is T1, dPPR10-C2. Description: smFRET; 1 uM RNA; mean binding time 43.4 s; SPR: 30 mM Tris pH 7.6, 40 mM KCl, 5 mM MgCl2, 0.5 mM DTT, 0.25 mM EDTA, 0.01% P20, 20 C; ensemble FRET and MST: 100 mM Tris-HCl pH 8.0, 100 mM KCl; smFRET buffer not in material. The note with it: protein: recombinant; tags: N-terminal Avi-tag, biotinylated; Cy3/AF647 maleimide on Cys for FRET; 3' extension, predicted secondary structure.

Series [10] deals with T1, dPPR10-C2. The series is described as follows: competition; 100-fold excess over RNAcognate; smFRET; SPR: 30 mM Tris pH 7.6, 40 mM KCl, 5 mM MgCl2, 0.5 mM DTT, 0.25 mM EDTA, 0.01% P20, 20 C; ensemble FRET and MST: 100 mM Tris-HCl pH 8.0, 100 mM KCl; smFRET buffer not in material. To be noted: protein: recombinant; tags: N-terminal Avi-tag, biotinylated; Cy3/AF647 maleimide on Cys for FRET.

As for UGUAUCCUUAACCAUUUCU (ssRNA) [RNAcognate], the Kd with dPPR10-C2 [1] came to 1.2 ± 0.2 nM.
Take UGUAUCCUUAACCAUUUCU (ssRNA) [RNAcognate 5'-FAM]: the Kd with dPPR10 [2] was found to be 9.7 ± 1.8 nM; with dPPR10 [3], 4 nM.
With CACAGGAACCGGCAAAGUGUAUCCUUAACCAUUUCU (ssRNA) [RNA5'-OH], in the series with dPPR10-C2 [4], the binding result was “binds”.

B1: RNAdual-OH (delta2) (ssRNA)
RNA: CAUUCCAACCCCCAAAGUGUAUCCUUAACCAUUUCUCUCACCAACCCCCAAAG
Consider B1, for which the binding result with dPPR10-C2 [5] is reported as “binds”.
On to UGUAUCCUAUACCAUUUCU (ssRNA) [RNA U9A,A10U], for which, in the series with dPPR10-C2 [6], the binding result is on record as “no binding”.
Consider UGUAUCCUUA (ssRNA) [RNA1-10], for which, in the series with dPPR10-C2 [7], the binding result was “no binding”.
Turning to UCACAGGAACCGGCAAAGU (ssRNA) [RNAanti-cognate 5'-FAM], in the series with dPPR10 [8], the binding result is on record as “no binding”.
Consider UGUAUCCUUAACCAUUUCUCACAGGAACCGGCAAAG (ssRNA) [RNA3'-OH], for which the binding result with dPPR10-C2 [9] is given as “binds”.
For UGUAUCCUUAAC (ssRNA) [RNA1-12], the binding result in the series with dPPR10-C2 [7] is “binds”.
On the same count and under the same terms, the result for CCAUUUCU (ssRNA) [RNA12-19] reads “no binding”.
With UCACAGGAACCGGCAAAGU (ssRNA) [RNAanti-cognate], the binding result with dPPR10-C2 [10] was “no binding”.

Values taken from publication PMC11662938, “Single-molecule visualization of sequence-specific RNA binding by a designer PPR protein”.
